B1: 11-224 (ssRNA)
RNA: GGGAGGACGAUGCGGACAGCGGCGACUAGCCUGUUCAUGCCUGCCCAGACGACUCGCCCGA
modifications: 2'-F pyrimidines
B2: 10-8 (ssRNA)
RNA: GGGAGAUAAGAAUAAACGCUCAAUUGACAAGGUACCUGUUGCCUGGCGUUUCUUUCGACAGGAGGCUCACAACAGGC
modifications: 2'-F pyrimidines
B3: 10-40 (ssRNA)
RNA: GGGAGAUAAGAAUAAACGCUCAAUGUCGUUAGUUUAUUGACAAGGCCCGAAGUUCGACAGGAGGCUCACAACAGGC
modifications: 2'-F pyrimidines
B4: 10-72 (ssRNA)
RNA: GGGAGAUAAGAAUAAACGCUCAAUGUGGCACUGUUGUCCACAAGGGCCUCAUUCGACAGGAGGCUCACAACAGGC
modifications: 2'-F pyrimidines
B5: 10-2 (ssRNA)
RNA: GGGAGAUAAGAAUAAACGCUCAAGCCUGAGUUAAACAUGACGGUUUGUGACCCUUCGACAGGAGGCUCACAACAGGC
modifications: 2'-F pyrimidines
B6: 8-160 (ssRNA)
RNA: GGGAGGACGAUGCGGGUCCCCGAAUUUAAAGUGCGUUUUCCUCCGGGCAGACGACUCGCCCGA
modifications: 2'-F pyrimidines
B7: 10-52 (ssRNA)
RNA: GGGAGAUAAGAAUAAACGCUCAAUCUUAUUGUGUCCAGCUUCUCCCUGCAGGCUUCGACAGGAGGCUCACAACAGGC
modifications: 2'-F pyrimidines
B8: 10-47 (ssRNA)
RNA: GGGAGAUAAGAAUAAACGCUCAAGUCAAGAGGAAAUGACACGGCUCCACUUUUAUUCGACAGGAGGCUCACAACAGGC
modifications: 2'-F pyrimidines
B9: 11-107 (ssRNA)
RNA: GGGAGGACGAUGCGGGUUCUGUGUGUCCACGUUCUUACCCCUGUGCAGACGACUCGCCCGA
modifications: 2'-F pyrimidines
B10: 10-3 (ssRNA)
RNA: GGGAGAUAAGAAUAAACGCUCAAGCCUGAGUUAAACAUGACGGGUUUUGUGACCCCUUUCGACAGGAGGCUCACAACAGGC
modifications: 2'-F pyrimidines
B11: 8-203 (ssRNA)
RNA: GGGAGGACGAUGCGGCGCGAGCCUAUUUAUGUCAUCAUGUCUGUGCAGACGACUCGCCCGA
modifications: 2'-F pyrimidines
B12: 11-123 (ssRNA)
RNA: GGGAGGACGAUGCGGGUGACUCAAAAUGGUGAUCCUCGUUUCGCCAGACGACUCGCCCGA
modifications: 2'-F pyrimidines
B13: 11-203 (ssRNA)
RNA: GGGAGGACGAUGCGGGGUUUUUCUUUUCUUGUUCUCUUCUUUCCCCCAGACGACUCGCCCGA
modifications: 2'-F pyrimidines
B14: 11-221 (ssRNA)
RNA: GGGAGGACGAUGCGGGCAGAGCGAAAAUCGUCUUGUCCCCGACGCCAGACGACUCGCCCGA
modifications: 2'-F pyrimidines
B15: 10-76 (ssRNA)
RNA: GGGAGAUAAGAAUAAACGCUCAAAGUUAGGCUUUAAAGCACGAUAAUCAGCAUUCGACAGGAGGCUCACAACAGGC
modifications: 2'-F pyrimidines
B16: 10-28 (ssRNA)
RNA: GGGAGAUAAGAAUAAACGCUCAACCUGUUCUGAACGCAAAAUGGCGUGGUGGCUUCGACAGGAGGCUCACAACAGGC
modifications: 2'-F pyrimidines
B17: 8-174 (ssRNA)
RNA: GGGAGGACGAUGCGGUCGAGCUUCUGAGUUAAACUGGGGCCUCCUCAGACGACUCGCCCGA
modifications: 2'-F pyrimidines

Sequence of HGF (hepatocyte growth factor/scatter factor) (P14210 32-494, chain 1 of 2): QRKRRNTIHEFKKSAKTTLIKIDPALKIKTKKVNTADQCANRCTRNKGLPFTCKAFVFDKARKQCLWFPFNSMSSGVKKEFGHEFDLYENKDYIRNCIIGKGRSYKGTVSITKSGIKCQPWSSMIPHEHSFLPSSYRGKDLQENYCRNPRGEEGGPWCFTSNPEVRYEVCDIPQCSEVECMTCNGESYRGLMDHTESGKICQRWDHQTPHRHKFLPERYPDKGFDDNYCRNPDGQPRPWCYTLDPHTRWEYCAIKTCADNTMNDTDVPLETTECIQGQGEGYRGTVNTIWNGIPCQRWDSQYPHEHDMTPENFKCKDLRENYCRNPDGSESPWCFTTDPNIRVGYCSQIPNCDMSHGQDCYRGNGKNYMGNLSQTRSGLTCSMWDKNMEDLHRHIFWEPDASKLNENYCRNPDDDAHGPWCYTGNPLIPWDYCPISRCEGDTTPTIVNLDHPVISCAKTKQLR
Sequence of HGF (hepatocyte growth factor/scatter factor) (P14210 495-728, chain 2 of 2): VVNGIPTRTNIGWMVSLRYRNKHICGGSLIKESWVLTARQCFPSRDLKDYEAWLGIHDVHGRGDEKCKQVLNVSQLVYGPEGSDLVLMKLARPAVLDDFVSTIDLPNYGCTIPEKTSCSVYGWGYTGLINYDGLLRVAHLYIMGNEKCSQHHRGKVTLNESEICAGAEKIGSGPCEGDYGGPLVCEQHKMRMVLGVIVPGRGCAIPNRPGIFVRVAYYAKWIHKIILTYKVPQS

In this data set the target is HGF (hepatocyte growth factor/scatter factor) (UniProt P14210;P14210 P14210:32-494,P14210:495-728). As to the kind of experiment: filter; HBSMC, 37C. As to conditions: tags: R&D Systems. The procedure:
In binding reactions, RNA concentrations were kept as low as possible—between 1 and 20 pM—to ensure equilibrium in conditions of protein excess. Oligonucleotides were incubated for 15 minutes at 37° C. with varying amounts of the protein in 43 µl of the binding buffer. Thirty-two microliters of each binding mixture placed on pre-wet 0.45 µm nitrocellulose filters under suction. Each well was immediately washed with 0.5 ml binding buffer. The amount of radioactivity retained on the filters was quantitated by imaging. The radioactivity that bound to filters in the absence of protein was used for background correction. The percentage of input oligonucleotide retained on each filter spot was plotted against the corresponding log protein concentration. The nonlinear least square method was used to obtain the dissociation constant (K_d; reference Jellinek, Lynott et al. 1993, Proc. Natl. Acad. Sci. USA. 90:11227–31).
In turn, B1 gave a dissociation constant Kd of 0.11 nM.

With B2, the Kd worked out at 0.92 nM.

B3 registered a Kd of 0.35 nM. Against the preceding molecule, the Kd is about 2.6-fold lower.

Turning to B4, binding was put at a Kd of 0.45 nM. This Kd and that of the molecule before are within 1.5-fold of each other.

B5 registered a Kd of 0.069 nM.

Turning to B6, binding was characterised by a dissociation constant (Kd) of 0.15 nM.

For B7, the equilibrium dissociation constant (Kd) is 0.16 nM.

The molecule B8 had a Kd of 0.39 nM.

B9 returned a Kd of 0.14 nM.

Take B10: the dissociation constant (Kd) amounted to 0.072 nM.

B11 showed an equilibrium dissociation constant (Kd) of 0.14 nM.

The molecule B12 had a dissociation constant Kd of 0.09 nM.

For B13, binding was put at a Kd of 0.26 nM.

In turn, B14 came in with a Kd of 0.062 nM. Compared with the last molecule, the Kd is about 4.2-fold lower.

As for B15, the Kd is 0.17 nM. This Kd is about 2.7-fold higher than that of the molecule before.

As to B16, binding was characterised by a dissociation constant (Kd) of 0.86 nM.

B17 registered a Kd of 0.23 nM.

The term Kd denotes the equilibrium constant for the complex coming apart. Read a low Kd as a tighter complex.

(Values after patent publication US6344321, “Nucleic acid ligands which bind to hepatocyte growth factor/scatter factor (HGF/SF) or its receptor c-met” (Gilead Sciences, Inc.).)
